# Measured values as given in US20190153092A1 (NBE THERAPEUTICS, published 2019).
# Residue numbers refer to the chain shown, from its start.
# B1: chimeric mAb 2A2 (mouse variable regions, human IgG1/kappa constant regions) (antibody, V domains shown)
# VH: QVQLQQSGAELVRPGASVTLSCKASGYTFSDYEMHWVIQTPVHGLEWIGAIDPETGGTAYNQKFKGKAILTADKSSSTAYMELRSLTSEDSAVYYCTGYYDYDSFTYWGQGTLVTVSA
# VL: DIVMTQSQKIMSTTVGDRVSITCKASQNVDAAVAWYQQKPGQSPKLLIYSASNRYTGVPDRFTGSGSGTDFTLTISNMQSEDLADYFCQQYDIYPYTFGGGTKLEIK
# notes: also called chim 2A2; parental mAb 2A2
# B2: rbQ11, humanized from R11 (antibody, human IgG1, V domains shown)
# VH: EVQLVQSGGGLVQPGGSLRLSCAASGSDINDYPISWVRQAPGKGLEWVSFINSGGSTWYASWVKGRFTISRDNAKNSLYLQMNSLRDDDTATYFCARGYSTYYGDFNIWGQGTLVTVSS
# VL: DIVMTQSPSSLSASVGDRVTITCQASQSIDSNLAWFQQKPGKAPKSLIYRASNLASGVPSKFSGSGSGTDFTLTISSLQREDAATYYCLGGVGNVSYRTSFGGGTKVEIK
# notes: Human IgG1/kappa, expressed in 293T cells and purified; also called huR11-Q11; rbQ11-32
# B3: rbD4, humanized from R11 (antibody, human IgG1, V domains shown)
# VH: EVQLVESGGGLVQPGRSLRLSCTASGSDINDYPISWFRQAPGKGLEWVGFINSGGSTWYASWVKGRFTISRDDSKSIAYLQMNSLKTDDTATYFCARGYSTYYGDFNIWGQGTTVTVSS
# VL: B2 VL with I2V, K45N, S46L, K61R, D70E, G103Q
# notes: Human IgG1/kappa, expressed in 293T cells and purified; also called huR11-D4; rbD4-32
# B4: rbQ12, humanized from R11 (antibody, human IgG1, V domains shown)
# VH: B2 VH with Q6E, D87A, L114M
# VL: B2 VL with D1E, K45N, S46L, K61R, D70E, G103Q
# notes: Human IgG1/kappa, expressed in 293T cells and purified; also called huR11-Q12; rbQ12-40
# B5: hu2A2-D23, humanized from 2A2 (antibody, human IgG1, V domains shown)
# VH: QVQLVESGAEVKKPGASVKLSCKASGYTFSDYEMHWVRQAPGQRLEWMGAIDPETGGTAYNQKFKGRVTITVDKSASTAYMELSSLRSEDTAVYYCTGYYDYDSFTYWGPGTTVTVSS
# VL: DIVMTQSPSTLSASVGDRVTITCKASQNVDAAVAWYQQKPGTAPKLLIYSASNRYTGVPSRFSGSGSGTEFTLTISSLQSEDLADYFCQQYDIYPYTFGQGTKLEIK
# notes: Human IgG1/kappa, expressed in 293T cells and purified; also called msD23-19
# B6: hu2A2b-Q11, humanized from 2A2 (antibody, human IgG1, V domains shown)
# VH: EVQLVQSGAEVKKPGASVKVSCKASGYTFSDYEMHWVRQAPGQGLEWLGAIDPETGGTAYNQKFKGRVTMTGDTSISTAYMELSRLTSDDTAVYYCTGYYDYDSFTYWGQGTLVSVSS
# VL: B5 VL with V3Q, T10S, A13T, T42K, P59A, E70D, L73F
# notes: also called hu2A2-Q11; msQ11-3
# B7: hu2A2-D16, humanized from 2A2 (antibody, human IgG1, V domains shown)
# VH: B6 VH with Q6E, L48V, G72R, I76T, A79V, R85S, T87R, D89E, S115T
# VL: B5 VL with V3Q, T10S, T42K, V58I, S60T, E70D, L104V
# notes: Human IgG1/kappa, expressed in 293T cells and purified; also called msD16-7
# B8: Chimeric mAb R12 (rabbit variable regions, human IgG1/lambda constant regions) (antibody, V domains shown)
# VH: QEQLVESGGRLVTPGGSLTLSCKASGFDFSAYYMSWVRQAPGKGLEWIATIYPSSGKTYYATWVNGRFTISSDNAQNTVDLQMNSLTAADRATYFCARDSYADDGALFNIWGPGTLVTISS
# VL: ELVLTQSPSVSAALGSPAKITCTLSSAHKTDTIDWYQQLQGEAPRYLMQVQSDGSYTKRPGVPDRFSGSSSGADRYLIIPSVQADDEADYYCGADYIGGYVFGGGTQLTVT
# notes: Full-length IgG1 with human gamma 1 and lambda constant regions; also called parental mAb R12
# B9: huR12_11, humanized from R12 (antibody, human IgG1, V domains shown)
# VH: QVQLVESGGALVQPGGSLTLSCKASGFDFSAYYMSWVRQAPGKGLEWIATIYPSSGKTYYAASVQGRFTISADNAKNTVYLQMNSLTAADTATYFCARDSYADDGALFNIWGQGTLVTVSS
# VL: B8 VL with E1Q, P17S, Q40A, E42Q, Q49Y, T57E, P60S, P80S, T111G
# notes: Human IgG1 with lambda light chain
# B10: huR12_16, humanized from R12 (antibody, human IgG1, V domains shown)
# VH: B9 VH with A10E, Q13T, T50S, S63A
# VL: B8 VL with E1Q, P17S, Q40A, E42Q, Q49Y, T57E, P60S, P80S, T111G
# notes: as for B9
# B11: huR12_4, humanized from R12 (antibody, human IgG1, V domains shown)
# VH: B9 VH with A10E, Q113K
# VL: QLVLTQSPSVSAALGSSAKITCTLSSAHKTDTIDWYQQLAGQAPRYLMYVQSDGSYEKRSGVPDRFSGSASGADRYLAISRVQADDEADYYCGADYIGGYVFGGGTQLTVLG
# notes: as for B9
# B12: huR12_7, humanized from R12 (antibody, human IgG1, V domains shown)
# VH: B9 VH with A10E, Y80S, Q113K
# VL: B11 VL with A70S, A78I, R81S
# notes: as for B9
# Biological target: T1, StrepII-tagged ROR1-extracellular domain (human) (human, UniProt Q01973 30-406)
# T1 construct: extracellular domain; also called ROR1-strep; soluble ROR1-strep
# Experiment: SPR (Biacore T200), purified mAb captured by anti-human Fc, ROR1-strep 2.5-20 nM as analyte, 1:1 model, 25 C
# Protocol: ROR1-strep was diluted in running buffer using 2-fold serial dilutions ranging from 20 nM to 2.5 nM. Association was measured at a flow of 30 μl/min for 120 s, and dissociation was followed for 200 s. Curves were fitted using 30 s dissociation due to upper plateau formation at later timepoints. Capture levels ranged from 29.1 RU to 57.7 RU.
# T1 sequence (Q01973 other isoform, or with tags, fused parts or gaps): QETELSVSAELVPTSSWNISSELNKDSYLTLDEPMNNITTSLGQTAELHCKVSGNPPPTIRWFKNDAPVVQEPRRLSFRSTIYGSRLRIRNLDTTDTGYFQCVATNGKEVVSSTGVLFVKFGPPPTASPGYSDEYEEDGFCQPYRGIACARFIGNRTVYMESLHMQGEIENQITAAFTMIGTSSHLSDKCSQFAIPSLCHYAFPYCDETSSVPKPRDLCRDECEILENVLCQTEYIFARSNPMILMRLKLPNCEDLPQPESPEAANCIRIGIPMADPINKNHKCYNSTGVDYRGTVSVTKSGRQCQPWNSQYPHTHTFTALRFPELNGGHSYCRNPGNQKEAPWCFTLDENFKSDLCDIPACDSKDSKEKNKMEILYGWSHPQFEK
Kd [nM],koff [s⁻¹],kon [M⁻¹ s⁻¹],Binder
5.7,0.00968,1.69e+06,B1
6.1,0.00498,821000,B2
9,0.0071,785000,B3
14.2,0.0104,733000,B4
8,0.0138,1.72e+06,B5
9.9,0.0173,1.75e+06,B6
10.9,0.0189,1.73e+06,B7

# Biological target: T1, StrepII-tagged ROR1-extracellular …
# Experiment: SPR (Biacore T200), IgG from HEK293T supernatant captured by anti-human Fc, ROR1-strep 2.5-20 nM as analyte, 1:1 model, 25 C
# Protocol: For initial determination of huR12 clone affinities and parental R12 using transient HEK293T supernatants, IgG expression vectors were transiently transfected into 293T cells and IgG titers in supernatants were quantified by ELISA. For SPR, supernatants were diluted to 1 μg/ml IgG with running buffer (HBS-EP+ pH 7.4 (10 mM HEPES, 150 mM NaCl, 3 mM EDTA, 0.05% Tween 20)) and captured for 200 s with a flow of 30 μl/min. ROR1-strep was diluted in running buffer using 2-fold serial dilutions ranging from 20 nM to 2.5 nM. Association was measured at a flow of 30 μl/min for 120 s, and dissociation was followed for 1000 s. Capture levels ranged from 26.9 RU to 54.1 RU.
Kd [nM],koff [s⁻¹],kon [M⁻¹ s⁻¹],Binder
1.03,0.000361,349000,B8
0.084,9.65e-05,1.15e+06,B9
0.092,8.79e-05,960000,B10
0.091,9.93e-05,1.09e+06,B11
0.11,0.000116,1.05e+06,B12

# Biological target: T1, StrepII-tagged ROR1-extracellular …
# Experiment: SPR (Biacore T200), purified mAb captured by goat anti-human Fc-gamma IgG, ROR1-strep 1.25 to 20 nM, 120 s association, 1000 s dissociation, 1:1 model
# Protocol: FIG. 13: Comparison of affinities of humanized and parental R12 mAbs determined by SPR using purified antibody. The three humanized R12 mAbs indicated were expressed at large scale in HEK293T cells, purified by Protein A affinity chromatography and subjected to SPR analysis for determination of affinity towards soluble ROR1-strep. Antibodies were captured using a goat α-human Fc-gamma-specific IgG. ROR1-strep was diluted in running buffer using 2-fold serial dilutions ranging from 1.25 nM to 20 nM. Association was measured 120 s, and dissociation was followed for 1000 s. Capture levels ranged from 26.9 RU to 54.1 RU.
row,Kd [nM],Binder
1,0.427,B8
2,0.0616,B9
3,0.0571,B11
4,0.051,B12
